Laboratory results taken from FireProtDB (doi:10.1021/bi300982v).

B1: Cytochrome c-552, P04164 (parent)
chain: QADGAKIYAQCAGCHQQNGQGIPGAFPPLAGHVAEILAKEGGREYLILVLLYGLQGQIEVKGMKYNGVMSSFAQLKDEEIAAVLNHIATAWGDAKKVKGFKPFTAEEVKKLRAKKLTPQQVLAERKKLGLK

Variants of: B1
Details: Thermus thermophilus, pH 7, sodium phosphate 50 mM, transition: 2, reversible: yes, structure 1C52, whole UniProt chain shown; for denaturant midpoint (higher = more stable): 25 °C, GdnHCl; for Tm / change of melting temperature, mutant - wild type (higher = more stable) / heat capacity change of unfolding / unfolding enthalpy (calorimetric) / unfolding free energy: Thermal, CD

| Variant | denaturant midpoint (higher = more stable) (absorbance) [M] | denaturant midpoint (higher = more stable) (far-UV-CD) [M] | denaturant midpoint (higher = more stable) (heme-CD) [M] | Tm [°C] | change of melting temperature, mutant - wild type (higher = more stable) [°C] | heat capacity change of unfolding [kcal/mol/K] | unfolding enthalpy (calorimetric) [kcal/mol] | unfolding free energy [kcal/mol] |
| --- | --- | --- | --- | --- | --- | --- | --- | --- |
| QADGAKIYAQCAGCHQQNGQGIPGAFPPLAGHVAEILAKEGGREYLILVLLYGLQGQIEVKGMKYNGVHSSFAQLKDEEIAAVLNHIATAWGDAKKVKGFKPFTAEEVKKLRAKKLTPQQVLAERKKLGLK | 3.7 | 4 | 3.3 | 99 | 4 | 0.51 | 59.3 | 8.13 |
| QADGAKIYAQCAGCHQQNGQGIPGAFPPLAGHVAEILAKEGGREYLILVLLYGLQGQIEVKGMKYNGVASSFAQLKDEEIAAVLNHIATAWGDAKKVKGFKPFTAEEVKKLRAKKLTPQQVLAERKKLGLK | 4.2 | 4.7 | 4.5 | 93 | -2 | 0.29 | 28.2 | 2.39 |
